The results in this text go back to US20240352098A1 (AstraZeneca / MedImmune, published 2024).

In assay [1] the target is T1, ClfA (Staphylococcus aureus).
T1 chain: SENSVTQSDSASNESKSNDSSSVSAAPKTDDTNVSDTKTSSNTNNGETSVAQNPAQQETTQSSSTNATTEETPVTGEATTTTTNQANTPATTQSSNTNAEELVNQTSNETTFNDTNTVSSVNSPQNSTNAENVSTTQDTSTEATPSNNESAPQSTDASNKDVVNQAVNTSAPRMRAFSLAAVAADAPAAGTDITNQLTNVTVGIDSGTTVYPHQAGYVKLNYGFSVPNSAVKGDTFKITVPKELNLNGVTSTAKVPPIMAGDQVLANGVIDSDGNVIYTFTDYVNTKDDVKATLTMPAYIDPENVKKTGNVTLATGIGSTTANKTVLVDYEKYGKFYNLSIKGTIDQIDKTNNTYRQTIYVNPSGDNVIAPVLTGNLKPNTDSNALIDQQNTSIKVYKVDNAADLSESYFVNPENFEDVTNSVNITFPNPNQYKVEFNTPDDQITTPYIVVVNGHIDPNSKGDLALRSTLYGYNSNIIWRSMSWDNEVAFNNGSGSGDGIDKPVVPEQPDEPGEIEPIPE
Put plainly: fibrinogen binding inhibition ('Fg IH' / 'fibrinogen assay'); blocked ligand fibrinogen; sample before light exposure; ClfA genotype not stated; printed in both tables.

For assay [2], the target named is T1, ClfA. As to the kind of experiment: fibrinogen binding inhibition ('Fg IH' / 'fibrinogen assay'); blocked ligand fibrinogen; sample after 1 week of light exposure; ClfA genotype not stated; printed in both tables.
Assay [3] concerns the target T1, ClfA. Put plainly: fibrinogen binding inhibition ('Fg IH' / 'fibrinogen assay'); blocked ligand fibrinogen; sample after 2 weeks of light exposure; ClfA genotype not stated; printed in both tables.
In assay [4] the target is T2, S. aureus clumping factor A, founder genotype ClfA002 (Staphylococcus aureus, UniProt Q99VJ4 221-559).
T2 sequence: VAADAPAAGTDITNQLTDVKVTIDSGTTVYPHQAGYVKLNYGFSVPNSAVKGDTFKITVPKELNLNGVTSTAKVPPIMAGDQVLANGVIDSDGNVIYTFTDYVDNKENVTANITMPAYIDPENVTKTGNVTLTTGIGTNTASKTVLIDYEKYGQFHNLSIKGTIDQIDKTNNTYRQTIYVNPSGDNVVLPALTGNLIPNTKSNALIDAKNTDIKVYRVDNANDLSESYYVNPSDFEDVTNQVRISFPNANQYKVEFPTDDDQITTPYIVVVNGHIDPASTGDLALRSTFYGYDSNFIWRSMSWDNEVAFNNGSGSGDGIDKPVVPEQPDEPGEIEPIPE
Put plainly: Biacore. (In general: Surface plasmon resonance follows binding to a sensor surface in real time, without labels.)

For assay [5], the target named is T3, S. aureus clumping factor A, founder genotype ClfA004 (Staphylococcus aureus).
T3 construct: range 221-559
As to the kind of experiment: Biacore.

For assay [6], the target named is T2, S. aureus clumping factor A, founder ….
Assay [7] deals with T3, S. aureus clumping factor A, founder ….
For assay [8], the target named is T2, S. aureus clumping factor A, founder …. Put plainly: inhibition of ClfA binding to fibrinogen.
Assay [9] addresses T3, S. aureus clumping factor A, founder …. Put plainly: inhibition of ClfA binding to fibrinogen.
Assay [10] deals with T2, S. aureus clumping factor A, founder …. Put plainly: fibrinogen binding inhibition assay (FIG. 1B).
The target of assay [11] is T3, S. aureus clumping factor A, founder …. As to the kind of experiment: fibrinogen binding inhibition assay (FIG. 1B).
Assay [12] addresses T2, S. aureus clumping factor A, founder …. Put plainly: Biacore, antibody captured, ClfA as sample.
Assay [13] deals with T3, S. aureus clumping factor A, founder …. As to the kind of experiment: Biacore, antibody captured, ClfA as sample.
In assay [14] the target is T2, S. aureus clumping factor A, founder …. As to the kind of experiment: affinity kinetics, method not named (Table 1).
Assay [15] deals with T3, S. aureus clumping factor A, founder …. Put plainly: affinity kinetics, method not named (Table 1).
Assay [16] addresses T2, S. aureus clumping factor A, founder …. As to the kind of experiment: ELISA, inhibition of ClfA binding to immobilised fibrinogen. On the technique in general: An ELISA detects its analyte on a solid surface through an enzyme-linked reagent.
In assay [17] the target is T3, S. aureus clumping factor A, founder …. The assay is described as above.
In assay [18] the target is T2, S. aureus clumping factor A, founder …. Put plainly: fibrinogen binding inhibition assay (ClfA binding to fibrinogen).
Assay [19] concerns the target T3, S. aureus clumping factor A, founder …. The description is as above.
In assay [20] the target is T1, ClfA. Put plainly: fibrinogen binding inhibition ('IC50 (ug/ml) fibrinogen assay'); blocked ligand fibrinogen; sample after 2 weeks of light exposure; ClfA genotype not stated; printed only in the right-hand table.

Numbering of substitutions follows the chain as printed. In names and notes the source's numbering stands.

B1: N3F (antibody)
heavy: QVQLQESGPGLVKPSETLSLTCTVSGGSIQNSYWSWIRQPPGKGLEWIGYLYSSGRTNYTPSLKSRVTISVDTSKNQFSLKLSSVTAADTAVYYCARTHLGGFHYGGGFWFDPWGQGTLVTVSSASTKGPSVFPLAPSSKSTSGGTAALGCLVKDYFPEPVTVSWNSGALTSGVHTFPAVLQSSGLYSLSSVVTVPSSSLGTQTYICNVNHKPSNTKVDKRVEPKSCDKTHTCPPCPAPELLGGPSVFLFPPKPKDTLMISRTPEVTCVVVDVSHEDPEVKFNWYVDGVEVHNAKTKPREEQYNSTYRVVSVLTVLHQDWLNGKEYKCKVSNKALPAPIEKTISKAKGQPREPQVYTLPPSREEMTKNQVSLTCLVKGFYPSDIAVEWESNGQPENNYKTTPPVLDSDGSFFLYSKLTVDKSRWQQGNVFSCSVMHEACSFHLCQKSLSLSPGK
light: DIQMTQSPSSLSASVGDRVTITCRASQSITSYLNWYQQKPGKAPKLLIYASSSLQSGVPSRFSGSGSGTDFTLTISSLQPEDFATYYCQESYSTPPTFGQGTKVEIKRTVAAPSVFIFPPSDEQLKSGTASVVCLLNNFYPREAKVQWKVDNALQSGNSQESVTEQDSKDSTYSLSSTLTLSKADYEKHKVYACEVTHQGLSSPVTKSFNRGEC
notes: copies: 2 + 2
In the case of B1, the IC50 amounted to 9.95 µg/mL in the assay with ClfA [1], 19.9 µg/mL with ClfA [2] and 27.8 µg/mL with ClfA [3].

B2: SAR114 anti-ClfA monoclonal antibody (antibody)
heavy: not shown
light: B1 light
With B2, the “fold tighter binding (KD) than SAR114-N3” value in assay [4] and in assay [5] was about 10 fold each time. Further, the “IC50 (read off the curve)” value in assay [6] was about 10000 nM; in assay [7], about 30000 nM. The IC50 in [8] is 2.91 µg/mL; in assay [9], 1.72 µg/mL; in assay [10] it was about 20000 nM; in assay [11], about 20000 nM; in assay [16], 14.3 nM; in assay [17], 8.08 nM. The IC50 worked out at 1.16 µg/mL in [18] and 1.63 µg/mL in [19]. For the same molecule, the Kd in [12] came to 0.0477 nM; in assay [13] it was 0.0209 nM; in assay [14], 0.0448 nM; in assay [15] it was 0.00115 nM. Further, the koff in assay [12] came out at 0.000182 s⁻¹; in assay [13] it was 6.21e-05 s⁻¹; in assay [14], 9.53e-05 s⁻¹; in [15] it was 6.46e-06 s⁻¹. Besides, the kon was 3.82e+06 M⁻¹ s⁻¹ in [12], 2.97e+06 M⁻¹ s⁻¹ in assay [13], 2.13e+06 M⁻¹ s⁻¹ in assay [14] and 5.62e+06 M⁻¹ s⁻¹ in assay [15].

B3: N3Y (antibody)
heavy chain: B1 heavy with F441Y
light chain: B1 light
As for B3, the IC50 with ClfA [1] came out at 6.28 µg/mL; with ClfA [2] it was 9.2 µg/mL; with ClfA [20], 12.7 µg/mL.

B4: SAR114-N3 (antibody)
heavy: B1 heavy with F441W
light: B1 light
Turning to B4, the IC50 in assay [8] turned out to be 3.11 µg/mL. This molecule also yielded an IC50 in assay [9] of 2.52 µg/mL. Moreover, in assay [12], the Kd is 0.265 nM, the koff turned out to be 0.00104 s⁻¹ and the kon was found to be 3.92e+06 M⁻¹ s⁻¹. In assay [13], this molecule gave a dissociation constant Kd of 0.316 nM, a koff of 0.000756 s⁻¹ and a kon of 2.39e+06 M⁻¹ s⁻¹.

The term IC50 denotes the concentration at which inhibition is half-maximal. Read a low IC50 as greater potency. As usually defined, the Kd is the equilibrium constant for the complex coming apart. A higher Kd goes with lower affinity. The term koff denotes a measure of how fast the partners let go of each other. As a reminder, the kon is the rate constant with which the complex forms.
